Experimental data reported in patent US20090325168A1 (ONCOIMMUNIN, published 2009).
Square brackets hold non-standard residues; d marks the D form. Ends that are not written are not given here. * marks the point of attachment. 5‑TMR = 5'-carboxytetramethylrhodamine, CN(C)c1ccc2c(-c3ccc(C(=O)*)cc3C(=O)[O-])c3ccc(=[N+](C)C)cc-3oc2c1; rhodamine X acetamide = R492, linked via the cysteine sulfhydryl; Fmoc = O=C(OCC1c2ccccc2-c2ccccc21)*; Nle = CCCC[C@H](N)C(=O)O; Aib = CC(C)(N)C(=O)O; Ahx = NCCCCCC(=O)O

T1: CPP32 protease (human (Jurkat cells), UniProt P42574 29-277)
T1 sequence (looked up): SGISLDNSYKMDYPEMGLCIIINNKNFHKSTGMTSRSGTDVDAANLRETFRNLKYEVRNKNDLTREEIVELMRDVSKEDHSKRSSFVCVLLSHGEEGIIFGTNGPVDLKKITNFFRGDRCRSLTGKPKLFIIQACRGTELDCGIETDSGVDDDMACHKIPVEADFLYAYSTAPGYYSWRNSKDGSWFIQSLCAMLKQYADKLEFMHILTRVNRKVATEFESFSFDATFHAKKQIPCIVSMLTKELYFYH


Columns and labels:
CPP32 protease = biological target: T1, CPP32 protease; experiment: cell-based or functional assay
elastase = experiment: cell-based or functional assay

Row | increase in fluorescence intensity in anti-Fas-activated Jurkat cells (flow cytometry) (CPP32 protease) [fold] | increase in fluorescence at 589 nm after treatment with elastase (elastase) [fold] | increase in fluorescence within the first 1000 seconds of exposure to elastase (elastase) [fold] | Binder
1 | ≤ 10 | – | – | Fmoc-K(carboxytetramethylrhodamine)D[Aib][Ahx]GDEVDGIDG[Ahx]PK(carboxytetramethylrhodamine)GY [Fm-CGD2D, Fm-K[F1]DBJGDEVDGIDGJPK[F1]GY (compound 11 of Table 12)]
2 | – | > 10 | > 5 | {5‑TMR}-DAIP[Nle]SIPC(rhodamine X acetamide) [D-NorFES-A protease indicator, F1-Asp-Ala-Ile-Pro-Nle-Ser-Ile-Pro-Cys-F2]
